How the values were obtained:
[1] = molecular target: chloroplastic ribosomal protein L10 from S. oleracea (S. oleracea (spinach)); assay: native MS; chloroplastic 70S ribosomes introduced into a QE-UHMR mass spectrometer; intact stalk complexes released by in-source trapping activation and their mass measured; quadrupole isolation and HCD fragmentation ejected a single L12 (pseudo-MS3)
[2] = molecular target: the molecule itself; assay: as above

stoichiometry N [1]: 6 L12 per L10
B1: chloroplastic ribosomal protein L12 from S. oleracea (natural protein, S. oleracea (spinach), UniProt P02398 57-189, looked up)
chain: AVEAPEKIEQLGTQLSGLTLEEARVLVDWLQDKLGVSAASFAPAAAVAAPGAPADAAPAVEEKTEFDVSIDEVPSNARISVIKAVRALTSLGLKEAKELIEGLPKKLKEGVSKDDAEDAKKQLEDAGAKVSIV
notes: 50S ribosomal protein L12, chloroplastic, Spinacia oleracea; Six copies in each stalk complex; also called L7/L12; source: endogenous, in chloroplastic 70S ribosomes purified from spinach leaves (sucrose cushion, sucrose gradient)
binding result [2]: binds

Source: PMC6021402, “Dissecting ribosomal particles throughout the kingdoms of life using advanced hybrid mass spectrometry methods” (Nature Communications, 2018)
